Results as given in patent US20140017260A1.

Biological target: Runx2
Test: cell-based or functional assay

| Substance | suppression of Runx2 activation of the p6OSE2-Luc reporter construct |
| --- | --- |
| Rorβ ΔAD (deletion of the activation domain), C-terminal FLAG (receptor) | 75% |
| Rorβ E28A/G29A double-point mutant in the DBD, C-terminal FLAG (receptor) | 96% |

Continued, values first:

| suppression of Runx2 activation of the p6OSE2-Luc reporter construct | Substance |
| --- | --- |
| 88% | Rorβ ΔLBD (deletion of the ligand binding domain), C-terminal FLAG (receptor) |
| 28% | Rorβ ΔHinge (deletion of the Hinge domain), C-terminal FLAG (receptor) |
| 91% | retinoic acid receptor-related orphan receptor beta (Rorβ), wild-type, with C-terminal FLAG epitope |
